# Laboratory results: IntAct's records for PubMed 29039417
# B1: Protein PTHB1 (Homo sapiens), Q3SYG4 (parent)
# chain: MSLFKARDWWSTILGDKEEFDQGCLCLANVDNSGNGQDKIIVGSFMGYLRIFSPHPAKTGDGAQAEDLLLEVDLRDPVLQVEVGKFVSGTEMLHLAVLHSRKLCVYSVSGTLGNVEHGNQCQMKLMYEHNLQRTACNMTYGSFGGVKGRDLICIQSMDGMLMVFEQESYAFGRFLPGFLLPGPLAYSSRTDSFLTVSSCQQVESYKYQVLAFATDADKRQETEQQKLGSGKRLVVDWTLNIGEQALDICIVSFNQSASSVFVLGERNFFCLKDNGQIRFMKKLDWSPSCFLPYCSVSEGTINTLIGNHNNMLHIYQDVTLKWATQLPHIPVAVRVGCLHDLKGVIVTLSDDGHLQCSYLGTDPSLFQAPNVQSRELNYDELDVEMKELQKIIKDVNKSQGVWPMTEREDDLNVSVVVSPNFDSVSQATDVEVGTDLVPSVTVKVTLQNRVILQKAKLSVYVQPPLELTCDQFTFEFMTPDLTRTVSFSVYLKRSYTPSELEGNAVVSYSRPTDRNPDGIPRVIQCKFRLPLKLICLPGQPSKTASHKITIDTNKSPVSLLSLFPGFASQSDDDQVNVMGFHFLGGARITVLASKTSQRYRIQSEQFEDLWLITNELILRLQEYFEKQGVKDFACSFSGSIPLQEYFELIDHHFELRINGEKLEELLSERAVQFRAIQRRLLARFKDKTPAPLQHLDTLLDGTYKQVIALADAVEENQGNLFQSFTRLKSATHLVILLIALWQKLSADQVAILEAAFLPLQEDTQELGWEETVDAAISHLLKTCLSKSSKEQALNLNSQLNIPKDTSQLKKHITLLCDRLSKGGRLCLSTDAAAPQTMVMPGGCTTIPESDLEERSVEQDSTELFTNHRHLTAETPRPEVSPLQGVSE
# partner: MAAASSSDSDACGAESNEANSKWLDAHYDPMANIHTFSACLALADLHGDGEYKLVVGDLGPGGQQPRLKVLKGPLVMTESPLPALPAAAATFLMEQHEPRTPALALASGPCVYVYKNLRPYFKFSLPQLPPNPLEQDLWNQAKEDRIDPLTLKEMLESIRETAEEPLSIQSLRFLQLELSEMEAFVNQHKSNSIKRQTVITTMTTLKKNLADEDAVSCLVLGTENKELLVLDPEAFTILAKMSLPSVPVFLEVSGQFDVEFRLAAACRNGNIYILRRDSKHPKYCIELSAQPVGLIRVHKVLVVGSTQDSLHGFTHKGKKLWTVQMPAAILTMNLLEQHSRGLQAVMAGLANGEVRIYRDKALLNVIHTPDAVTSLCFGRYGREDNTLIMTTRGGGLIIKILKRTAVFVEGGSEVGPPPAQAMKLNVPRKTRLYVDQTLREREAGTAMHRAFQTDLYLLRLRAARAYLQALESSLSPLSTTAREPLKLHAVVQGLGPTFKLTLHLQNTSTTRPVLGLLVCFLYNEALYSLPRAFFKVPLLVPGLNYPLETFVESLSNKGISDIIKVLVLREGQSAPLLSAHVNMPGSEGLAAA
# Variants of: B1
# Details: with bbs1_human BBS1, Q8NFJ9
row,Variant,effect of a mutation on the interaction
1,L666A,with no effect
2,I601E,with no effect
3,I601A,with no effect
4,R683K,with no effect
5,P530K,with no effect
6,D572E,with no effect
7,F582K,with no effect
8,A504E,with no effect
9,L799K,with no effect
10,E770A,with no effect
11,E770K,disrupting interaction strength
12,A832K,with no effect
13,L531E,with no effect
14,D859A,with no effect
15,D571K,with no effect
16,D571E,with no effect
17,D700K,with no effect
18,S787A,with no effect
19,S797K,with no effect
20,L825K,with no effect
21,E647A,with no effect
22,S820K,with no effect
23,T428E,with no effect
24,T428A,with no effect
25,Q764K,with no effect
26,V424A,with no effect

row,Variant,effect of a mutation on the interaction
1,L491K,with no effect
2,L491E,with no effect
3,L533A,with no effect
4,L533K,with no effect
5,R679E,with no effect
6,I550E,with no effect
7,D435K,with no effect
8,D573A,with no effect
9,T836A,with no effect
10,F646A,with no effect
11,E862A,with no effect
12,Q791A,with no effect
13,Q791E,with no effect
14,G538A,with no effect
15,H651E,with no effect
16,A872K,with no effect
17,F476A,with no effect
18,P497E,with no effect
19,A690E,with no effect
20,S828A,with no effect
21,N800K,with no effect
22,N800A,with no effect
23,N800E,with no effect
24,S860E,with no effect
25,S418A,with no effect
26,I751E,with no effect

row,Variant,effect of a mutation on the interaction
1,I751A,with no effect
2,F580A,disrupting interaction strength
3,L793E,with no effect
4,I776E,with no effect
5,H732A,with no effect
6,L681A,with no effect
7,P419A,with no effect
8,N448K,with no effect
9,V417A,with no effect
10,V577E,with no effect
11,V577A,with no effect
12,K685A,with no effect
13,S635E,with no effect
14,H546K,with no effect
15,A831K,with no effect
16,P537E,with no effect
17,L698K,with no effect
18,L808E,with no effect
19,T844A,with no effect
20,H581E,with no effect
21,G884K,with no effect
22,L766E,with no effect
23,A712E,with no effect
24,L737E,with no effect
25,V671E,with no effect
26,S886A,with no effect

row,Variant,effect of a mutation on the interaction
1,F724K,with no effect
2,L583E,with no effect
3,I548E,with no effect
4,A708K,with no effect
5,P847K,with no effect
6,S423E,with no effect
7,T805E,with no effect
8,T702A,with no effect
9,E769A,with no effect
10,F474E,with no effect
11,S561E,with no effect
12,V489K,with no effect
13,Q627T,disrupting interaction strength
14,Q627K,with no effect
15,Q627E,with no effect
16,E475K,with no effect
17,R674E,with no effect
18,T473A,with no effect
19,V590K,with no effect
20,L727E,with no effect
21,D773A,with no effect
22,T595E,with no effect
23,L695M,disrupting interaction strength
24,T589A,with no effect
25,Y508K,with no effect
26,K630E,with no effect

row,Variant,effect of a mutation on the interaction
1,N719E,with no effect
2,Q798K,with no effect
3,L562A,with no effect
4,Q677E,with no effect
5,Q677K,with no effect
6,S603K,with no effect
7,S603E,with no effect
8,Q717E,with no effect
9,A592V,disrupting interaction strength
10,D830E,with no effect
11,L665E,with no effect
12,L616P,disrupting interaction strength
13,A675E,with no effect
14,L559K,with no effect
15,L559E,with no effect
16,Q643K,with no effect
17,Q643E,with no effect
18,T434A,with no effect
19,R510K,with no effect
20,W610E,with no effect
21,S458E,with no effect
22,Q835K,with no effect
23,S509A,with no effect
24,G841E,disrupting interaction strength
25,Q539K,with no effect
26,R619C,disrupting interaction strength

row,Variant,effect of a mutation on the interaction
1,P877A,with no effect
2,P877K,with no effect
3,S596A,with no effect
4,G638K,with no effect
5,P834A,with no effect
6,P834E,with no effect
7,R669A,with no effect
8,S439K,with no effect
9,Q621A,with no effect
10,P689E,with no effect
11,E408A,with no effect
12,L560E,with no effect
13,P556E,with no effect
14,A755K,with no effect
15,E615K,with no effect
16,S806A,with no effect
17,E663A,with no effect
18,F721E,with no effect
19,F721A,with no effect
20,W741K,with no effect
21,L740E,with no effect
22,G579E,with no effect
23,G659K,with no effect
24,L744E,with no effect
25,M837V,disrupting interaction strength
26,M837S,disrupting interaction strength

row,Variant,effect of a mutation on the interaction
1,L620F,disrupting interaction strength
2,H694E,with no effect
3,H694Y,disrupting interaction strength
4,H694K,with no effect
5,V522E,with no effect
6,Y495K,with no effect
7,T496E,with no effect
8,E873A,with no effect
9,V461E,with no effect
10,P641K,with no effect
11,E715A,with no effect
12,N716A,with no effect
13,N716E,with no effect
14,F684K,with no effect
15,F487A,with no effect
16,L692R,disrupting interaction strength
17,L733E,with no effect
18,L699K,disrupting interaction strength
19,S667F,disrupting interaction strength
20,V442A,with no effect
21,M578E,with no effect
22,T845K,with no effect
23,L709A,with no effect
24,I846A,with no effect
